Columns and labels:
Assay in all cases: pull-down binding Z-score (relative to library population); higher = stronger binding
[1] = system: TO-3-N3 (biotin conjugate); settings: RNA library: Library-2
How it was run: (§1)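 Heat-folded RNA library (1 μg, Cy5 or Cy3 end label, phosphate/NaCl/KCl buffer) was captured for 60 min at 25 °C on streptavidin beads displaying 100 pmol of biotin-conjugated small molecule, then washed three times. The bound fraction, eluted in hot SDS, was hybridised to a DNA barcode microarray at 55.5 °C for 20 h. Z-scores for binding were taken against the library mean and standard deviation after beads-only subtraction and trimmed averaging of replicate barcoded probes.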

TO-N3 (biotin conjugate) = settings: RNA library: Library-2
How it was run: as §1

[2] = system: TO-3-N3-2 (biotin conjugate); settings: RNA library: Library-2
How it was run: as §1

[3] = system: G-clamp-N3 (biotin conjugate); settings: RNA library: Library-1 (pre-miRNA loops + repeats)
How it was run: as §1

[4] = system: TO-N3-2 (biotin conjugate); settings: RNA library: Library-2
How it was run: as §1

| Sequence | pull-down binding Z-score [1] | pull-down binding Z-score (TO-N3 (biotin conjugate)) | pull-down binding Z-score [2] | pull-down binding Z-score [3] | pull-down binding Z-score [4] |
| --- | --- | --- | --- | --- | --- |
| AGUUUGUGAUAAUGUUUGUCUAUAUAGUUAUGAAUG [hsa-mir-4307] | -0.811 | -0.633 | -0.174 | 0.397 | -0.531 |
| AUAAUACGGAUUACGUUGUUA [hsa-mir-137] | -0.188 | 0.148 | -0.139 | -1.89 | -0.0367 |
| AUACUGGAGCAAUAGAUACAGUU [hsa-mir-3692] | -0.727 | -0.663 | -0.389 | -0.223 | -0.353 |
| AUAGAACAUUGACAUCAACACUAG [hsa-mir-4278] | -0.104 | -0.204 | -0.0605 | -2.05 | -0.508 |
| AUAGCACAAAGUCUUAUGGUACUGU [hsa-mir-3169] | 0.174 | 0.199 | 0.253 | 1.12 | -0.178 |
| AUAGUUGAGGAGGACACCCAAGGAGAUCACUAU [hsa-let-7e] | 0.341 | 0.871 | 0.863 | -0.413 | 1.26 |
| AUAGUUGUGGGGUAGUGAUUUUACCCUGUUCAGGAGAUAACUAU [hsa-let-7f-1] | 0.676 | 0.842 | 0.657 | -0.471 | 0.224 |
| AUAGUUUAGAAUUACAUCAAGGGAGAUAACUGU [hsa-let-7a-2] | -0.34 | -0.695 | 0.285 | 0.705 | -0.163 |
| AUAGUUUGGGGCUCUGCCCUGCUAUGGGAUAACUAU [hsa-let-7a-3] | -0.227 | -0.227 | -0.115 | 0.889 | 0.141 |
| AUAGUUUUAGGGCAGGGAUUUUGCCCACAAGGAGGUAACUAU [hsa-let-7d] | 0.236 | 0.112 | 0.589 | -0.917 | 0.203 |
| AUAGUUUUAGGGUCACACCCACCACUGGGAGAUAACUAU [hsa-let-7a-1] | 0.853 | 0.607 | 0.205 | 0.294 | -0.0919 |
| AUAGUUUUAGGGUCAUACCCCAUCUUGGAGAUAACUAU [hsa-let-7f-2] | -0.384 | -0.497 | 0.00457 | -1.63 | -0.745 |
| AUAUAAAAUGCAAUUA [hsa-mir-3945] | 0.256 | 0.0171 | 0.327 | -1.21 | -0.448 |
| AUAUAAGGGAAGGCAUUAUAG [hsa-mir-3117] | 0.00808 | 0.0219 | 0.0974 | 0.00615 | -0.234 |
| AUAUAGAUAUCAGCUACCUAUAU [hsa-mir-3144] | -0.694 | -1.06 | -0.329 | -0.95 | -1.38 |
| AUAUGAGCUUCAUUUAUACAUUUCAUAU [hsa-mir-556] | -0.0401 | -0.335 | -0.0541 | -0.528 | -1.01 |
| AUAUGUGUGUAUAUAUGUACACAUAC [hsa-mir-466] | -0.227 | -0.604 | -0.378 | -0.157 | -1.14 |
| AUAUUGACACUAUAACAAUAAUGUCAAUAU [hsa-mir-4795] | -0.438 | -0.874 | -0.44 | 0.669 | -1.79 |
| AUCAAAGUGGGGACUCAUGGGGAGAG [hsa-mir-4284] | 3.11 | 2.65 | 1.43 | 0.195 | 1.07 |

| Sequence | pull-down binding Z-score [1] | pull-down binding Z-score (TO-N3 (biotin conjugate)) | pull-down binding Z-score [2] | pull-down binding Z-score [3] | pull-down binding Z-score [4] |
| --- | --- | --- | --- | --- | --- |
| AUCAAGAAAAGAUUUGGUGUUCUUGAU [hsa-mir-4782] | -0.152 | -0.513 | -0.112 | 1.36 | -0.784 |
| AUCACUGAAAUAUGUCUGAGCUUCUGUU [hsa-mir-4501] | -0.584 | -0.658 | -0.00263 | -0.332 | -0.302 |
| AUCAGCAGAGACAUGAGGUGAUCAAAAACCUUUUUUCAAAGCAGUGGG [hsa-mir-4300] | 0.48 | 0.796 | 0.276 | -0.911 | 0.438 |
| AUCAGGCAGUUUCCUG [hsa-mir-4289] | -0.305 | -0.16 | 0.101 | -1.29 | 0.0394 |
| AUCAGUUCUCAUUUUACACACUGGC [hsa-mir-24-1] | -0.563 | -0.54 | -0.0568 | 0.0425 | -0.282 |
| AUCAUAAUAAAGGUGUCAUGAU [hsa-mir-3682] | -0.489 | -0.879 | -0.169 | -0.55 | -0.694 |
| AUCAUCUCUCCCUUGGAU [hsa-mir-3683] | -0.626 | -0.733 | -0.257 | 1.39 | -0.446 |
| AUCAUGUAUAAUUAAAAAUGAU [hsa-mir-509-2_509-3_509-1] | -0.267 | -0.599 | -0.0578 | -0.568 | -1 |
| AUCCAGUCCACUUAAUUCUGAGAAAGUCCACAGACUGGAUCGGGUCUUGGAUUUUAGCUGGAUUCAU [hsa-mir-6082] | -0.796 | -0.258 | -0.223 | -0.0473 | 0.4 |
| AUCCCUUAGAUGCUAAGAUGGGGAU [hsa-mir-145] | -0.278 | -0.513 | -0.237 | 1.18 | -0.75 |
| AUCGGUCGAGAGCGUCCUGGCUGAU [hsa-mir-3178] | 0.18 | 0.526 | -0.22 | 0.173 | 1 |
| AUCUAUUCCAGAAGAU [hsa-mir-4696] | -0.911 | -1.28 | -0.62 | 1.53 | -1.35 |
| AUCUCCUUUAGGAAAACCUUCUGUGGGGAGU [hsa-mir-1296] | -0.0517 | -0.275 | -0.226 | -0.272 | -0.641 |
| AUCUGAAUGAUCUCAGC [hsa-mir-626] | 0.58 | 0.677 | 0.105 | -1.32 | 0.364 |
| AUCUGAGGUGACUGGCACAGAAGACUCAGG [hsa-mir-6735] | 0.238 | 0.673 | 0.101 | -0.394 | 0.797 |
| AUCUGAUGUUGAAUACUCUUUAAGU [hsa-mir-1245a] | -0.143 | -0.322 | -0.281 | -1.01 | -0.685 |
| AUCUGCAGGGCAUUGUGCUAACAGGU [hsa-mir-4681] | 0.532 | 0.644 | 0.211 | 1.35 | 0.0756 |
| AUCUUCCUGACCUGGUAAUAAUUAGGUGAGAAGGAU [hsa-mir-8069-2_8069-1] | -0.958 | -1.2 | -0.589 | 0.78 | -1.12 |
| AUGAGAAAUUGGUUUCAA [hsa-mir-8063] | -0.191 | -0.161 | -0.245 | 1.5 | -0.557 |

| Sequence | pull-down binding Z-score [1] | pull-down binding Z-score (TO-N3 (biotin conjugate)) | pull-down binding Z-score [2] | pull-down binding Z-score [3] | pull-down binding Z-score [4] |
| --- | --- | --- | --- | --- | --- |
| AUGAGCUAAAAAUCCCCAAGCUCU [hsa-mir-4769] | -0.414 | -0.477 | -0.358 | -0.0764 | -0.0561 |
| AUGAUAUAUUGUGAGAGCCAUGUCAU [hsa-mir-6718] | 0.0536 | -0.0603 | -0.0702 | 0.0796 | -0.393 |
| AUGAUUUUUGGGGUCA [hsa-mir-4678] | -0.0616 | -0.0941 | -0.1 | 1.23 | -0.328 |
| AUGCACCCAUAUUUUAAUAUCAAACUAUGACAAAUU [hsa-mir-3974] | -0.386 | -0.417 | -0.134 | -0.337 | -0.358 |
| AUGCAUGGCUGGUGGCGGCGUGCAG [hsa-mir-6722] | 0.897 | 1.56 | 0.74 | 0.533 | 2.13 |
| AUGCCCCAGGUGACGUGCUGGGCU [hsa-mir-4526] | 0.205 | 0.495 | 0.0558 | -0.192 | 0.888 |
| AUGCCUGAGAAUAUAUGAAGGAGGCU [hsa-mir-204] | 0.0552 | 0.525 | 0.374 | 2.31 | 0.965 |
| AUGCUAAGUCCAUGGGCAAACAU [hsa-mir-5704] | -0.258 | -0.088 | -0.165 | -0.176 | 0.235 |
| AUGGAGAACGCCCCCACCAGUUCCCAC [hsa-mir-6767] | 1.67 | 1.68 | 0.564 | -0.992 | 0.67 |
| AUGGAGGCUGCUUCUCCUCAGCAGCUGCCAUA [hsa-mir-3651] | -0.15 | -0.13 | -0.382 | 0.277 | 0.366 |
| AUGGAUAUGGGAACUGUGAUGUCCA [hsa-mir-4768] | -0.305 | -0.136 | 0.0446 | 1.17 | 0.232 |
| AUGGCAUUUAAGGAUUGCUAU [hsa-mir-4477a] | -0.716 | -0.893 | -0.473 | 0.671 | -0.675 |
| AUGGGAGCCCAGAGACGUCCUAU [hsa-mir-8074] | -0.304 | 0.0134 | -0.433 | 0.253 | 0.669 |
| AUGGGGCAGCUGGGAUGGUCCAAAAGGGUGGCCUCA [hsa-mir-1226] | 0.729 | 1.05 | 0.406 | 1.14 | 1.17 |
| AUGGUCUCUAUAUUUAUGAUGAUUAA [hsa-mir-889] | 0.533 | 0.577 | 0.373 | -0.798 | 0.0111 |
| AUGGUGUUUGUGAGUUGAUUGACAUCGU [hsa-mir-6506] | -0.398 | -0.408 | -0.457 | -0.212 | 0.0463 |
| AUGGUUAAUGUUCCACAGCCA [hsa-mir-5190] | -0.134 | 0.0767 | 0.157 | -0.723 | 0.372 |
| AUGGUUCCUAUUCUGAUCAAUAAACAUGGUUUGAGCCUAGUUACAAUGAUCUAAAAUUCACGGUCCAA [hsa-mir-548o] | -0.961 | -0.587 | -0.193 | -1.15 | -0.0344 |

Reference: the supplement of paper PMC11865577
